From PMC12350541, “Continuous Spectrophotometric Assay for Defluorinase and Dechlorinase Activities With α‐Halocarboxylic Acids” (Microbial Biotechnology, 2025)

How the values were obtained:
[1] = target: T1, rabbit heart lactate dehydrogenase (Oryctolagus cuniculus, UniProt A0A5F9DPL1); test: NADH oxidation, A340; assay type: biochemical; details: 0.300 mM NADH, 0.1 M Tris pH 9.0
T1 construct: gene LDHB; commercial native enzyme from heart (MilliporeSigma), tetramer

O=C(O)C(F)Cl = test: LDH-coupled NADH oxidation, A340, 96-well plate, Michaelis-Menten fit; assay type: biochemical, Dechloromonas aromatica (nom. nud.); details: 0.1 M Tris pH 8.0, room temperature not stated for plate, 40 ug DEF2, 50 ug LDH, 400 uM NADH, racemic substrate 1-30 mM

T1 sequence (A0A5F9DPL1 1-334): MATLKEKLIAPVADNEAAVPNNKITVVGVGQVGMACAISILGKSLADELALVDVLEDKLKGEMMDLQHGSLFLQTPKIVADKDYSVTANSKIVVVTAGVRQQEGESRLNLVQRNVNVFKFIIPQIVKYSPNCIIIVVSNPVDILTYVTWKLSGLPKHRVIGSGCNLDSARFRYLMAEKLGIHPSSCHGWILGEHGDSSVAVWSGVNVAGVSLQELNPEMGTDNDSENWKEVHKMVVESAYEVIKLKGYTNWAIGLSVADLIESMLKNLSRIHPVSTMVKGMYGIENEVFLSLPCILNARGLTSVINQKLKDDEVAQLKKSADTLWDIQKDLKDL

Compound	NADH oxidation, A340 [1]	Km (O=C(O)C(F)Cl) [mM]	kcat (O=C(O)C(F)Cl) [s⁻¹]
O=CC(=O)O [glyoxylate]	activity with commercial rabbit heart lactate dehydrogenase with glyoxylate was too slow	–	–
DEF2 (Dechloromonas aromatica RCB)	–	6.0	0.00533
